In this experiment the target is B7-H3 receptor on human CD4+ T cells (human). The experiment is described as follows: cell-based or functional assay.

B1: human B7-H3 VC (expressed on CHO.HLA-DR2 transfectants) (ligand)
chain: LEVQVPEDPVVALVGTDATLCCSFSPEPGFSLAQLNLIWQLTDTKQLVHSFAEGQDQGSAYANRTALFPDLLAQGNASLRLQRVRVADEGSFTCFVSIRDFGSAAVSLQVAAPYSKPSMTLEPNKDLRPGDTVTITCSSYRGYPEAEVFWQDGQGVPLTGNVTTSQMANEQGLFDVHSVLRVVLGANGTYSCLVRNPVLQQDAHGSVTITGQPMTFPPEALWVTVGLSVCLIALLVALAFVCWRKIKQSCEEENAGAEDQDGEGEGSKTALQPLKHSDSKEDDGQEIA
In the case of B1, the GM-CSF level reduced relative to GFP controls (multiplex ELISA, 72 h) is 65%; the IFN-γ level reduced relative to GFP controls (multiplex ELISA, 72 h) was 85%; the IL-10 level reduced relative to GFP controls (multiplex ELISA, 72 h) turned out to be 81%; the TNF-α level reduced relative to GFP controls (multiplex ELISA, 72 h) was 69%.

B2: human B7-H3 VCVC (expressed on CHO.HLA-DR2 transfectants) (ligand)
chain: LEVQVPEDPVVALVGTDATLCCSFSPEPGFSLAQLNLIWQLTDTKQLVHSFAEGQDQGSAYANRTALFPDLLAQGNASLRLQRVRVADEGSFTCFVSIRDFGSAAVSLQVAAPYSKPSMTLEPNKDLRPGDTVTITCSSYQGYPEAEVFWQDGQGVPLTGNVTTSQMANEQGLFDVHSILRVVLGANGTYSCLVRNPVLQQDAHSSVTITPQRSPTGAVEVQVPEDPVVALVGTDATLRCSFSPEPGFSLAQLNLIWQLTDTKQLVHSFTEGRDQGSAYANRTALFPDLLAQGNASLRLQRVRVADEGSFTCFVSIRDFGSAAVSLQVAAPYSKPSMTLEPNKDLRPGDTVTITCSSYRGYPEAEVFWQDGQGVPLTGNVTTSQMANEQGLFDVHSVLRVVLGANGTYSCLVRNPVLQQDAHGSVTITGQPMTFPPEALWVTVGLSVCLIALLVALAFVCWRKIKQSCEEENAGAEDQDGEGEGSKTALQPLKHSDSKEDDGQEIA
Molecule B2 displayed a GM-CSF level reduced relative to GFP controls (multiplex ELISA, 72 h) of 65%; an IFN-γ level reduced relative to GFP controls (multiplex ELISA, 72 h) of 85%; an IL-10 level reduced relative to GFP controls (multiplex ELISA, 72 h) of 81%; a TNF-α level reduced relative to GFP controls (multiplex ELISA, 72 h) of 69%.

For the origin of these results see US20050002935A1.
